Laboratory results reported in patent publication US6518054B1, “Metallo-endopeptidases” (Rijksuniverstteit Te Groningen, priority 1997, dated 2003).

Legend:
Assay type in all cases: biochemical
casein [1] = assay: Specific activity with casein as substrate at 37° C.
Experimental: (§1) Specific activities for TLP-ste and the 8-fold mutant were determined using casein (0.8%) as a substrate in 50 mM Tris-HCl (pH 7.5), 5 mM CaCl2 at 37° C. […] (pH 7.0), 5 mM CaCl2, 5% or 1% DMSO, 0.5% isopropanol, 0.01% Triton X-100, 50 mM NaCl, with […] of substrate, by measuring the decrease in absorption at 345 nm (Î345=−317 M^−1·cm^−1). Stock solutions of the furylacryloylated dipeptides, (Sigma, St. Louis, […].) were prepared by dissolving 3-(-2-furylacryloyl)-L-glycyl-L-leucine amide (FaGLa) and 3-(-2-furylacryloyl)-L-alanyl-L-phenylalanine amide (FaAFa) in DMSO. The kcat/Km ratios of the enzymes were determined by varying the enzyme concentrations (over a 50 fold range) under pseudo-first order conditions by measuring the initial activity, essentially according to the method described by Feder^30. The Ki for phosphoramidon (N-[a-L-rhamnopyrano-syl-oxyhydroxyphophinyl]-L-leucyl-L-tryptophan) was determined by a 30 minute preincubation of a 100 pM protease solution with varying concentrations of the inhibitor (10^−8 to 10^−3 M), in 50 mM MOPS (pH 7.0), 5 mM CaCl2, 50 mM NaCl, prior to the addition of the furylacryloated substrate. For determination of the Ki FaAFa was used as the substrate. Since the Km of the substrate for the enzyme is higher than the concentration used, IC50 values were taken to be equal to Ki values. The optimum temperature for activity was determined by incubating proteases with casein (0.8%) in 50 mM Tris-HCl (pH 7.5), 5 mM CaCl2, at different temperatures for 30 minutes, after which the amount of released peptides, indicative for activity, was measured^11.

casein [2] = assay: Optimum temperature for activity with casein
Experimental: as §1

[3] = Effect of denaturing agents on protease activity (FaGLa, 50° C.)
Experimental: Protease activities were determined in 50 mM MOPS (pH 7.0), 5 mM CaCl2, 50 mM NaCl, 0.01% Triton X-100, 0.5% isopropanol, using 100 μM FaGLa (3-(-2-furylacryloyl)-L-glycyl-L-leucine amide) as a substrate at 50° C. Enzymes and denaturing agents were preincubated in the reaction mixture at 50° C. for 15 minutes prior to the addition of the substrate. The reaction was followed by measuring the change in absorbance at 345 nm. […] Activities are expressed as percentage of the activity in the absence of denaturant.

β-Casein = assay: Proteolytic (cleavage) specificity on β-casein, reversed phase peptide pattern; settings: moderate and high temperatures (60° C. and 100° C.)
Experimental: FIG. 3. Typical proteolytic specificity of TLP-ste and the 8-fold mutant β-Casein (1 mg/ml) was incubated with TLP-ste or the 8-fold mutant at a molar ratio of 1000:1 for 1 hour at 60° C. and 100° C., respectively. Under these conditions β-casein behaves as a non-compact and largely flexible structure. The peptides resulting from hydrolysis were derivatized with dansyl-chloride. The proteolytic products were separated by loading a sample corresponding to 50 μg β-casein on a reversed phase column (RP-304, Bio-Rad Laboratories, Watford, Herts., UK). The mobile phase used was 50 mM NaAc, pH 5.2. Peptides were eluted with a linear gradient from 0-60% acetonitrile at a flow rate of 1 ml/min. Absorption of the eluting peptides was monitored at 254 nm.

[4] = test system: yeast protein preparation; assay: Hydrolysis of 10% (w/v) yeast proteins compared with commercial enzyme preparations; settings: yeast proteins 10% w/v
Source text: In industrial applications enzymes are used for the hydrolysis of protein preparations derived from different sources. Here we show the results of a comparative study in which the rate and quality of hydrolysis of casein and yeast protein preparations by the 8-fold mutated TLP-ste variant was compared with that obtained by the hydrolysis using 3 different enzyme preparations that are used for these purposes in industry. The hydrolysis conditions were chosen such that they were optimal for each of the enzyme preparation under study. The hydrolysis products were separated in an acid-soluble and a not acid-soluble fraction. The amount of acid-soluble protein material formed upon hydrolysis was determined by means of measuring the absorbance at 275 nm, whereas the composition of the acid-insoluble hydrolysis products was studied using SDS-PAGE.
Substrate (10% w/v of casein or yeast protein preparation) was incubated in 50 mM Tris-MES, 5 mM CaCl2, pH 6.5 at 50° C. (Enzyme I, Favourzyme™ 1000L); 50 mM Tris-MES, 5 mM CaCl2, pH 6.0 at 60° C. (Enzyme II, BioProtease N100L); 50 mM Tris-MES, 5 mM CaCl2, pH 8.0 at 60° C. […] The amount of acid-soluble protein released by hydrolysis was determined by measuring the absorbance of the samples at 275 nm. The acid precipitated proteins were redisolved in 6 M urea and subsequently analysed by SDS-PAGE (15% running gel).

B1: 8-fold mutant: TLP-ste with A4T, T56A, G58A, T63F, S65P, A69P and a disulfide bridge G8C-N60C (protein)
chain: VAGTSTVCVGRGVLGDQKYINTTYSSYYGYYYLQDNTRGSGIFTYDGRNRTVLPGSLWADADCQFFAPYDAPAVDAHYYAGVVYDYYKNVHGRLSYDGSNAAIRSTVHYGRGYNNAFWNGSQMVYGDGDGQTFLPFSGGIDVVGHELTHAVTDYTAGLVYQNESGAINEAMSDIFGTLVEFYANRNPDWEIGEDIYTPGVAGDALRSMSDPAKYGDPDHYSKRYTGTQDNGGVHTNSGIINKAAYLLSQGGVHYGVSVNGIGRDKMGKIFYRALVYYLTPTSNFSQLRAACVQAAADLYGSTSQEVNSVKQAFNAVGVY
specific activities at 37° C., wild-type versus mutant (casein [1]): identical | Specific activity casein (casein [1]; casein 0.8%, pH 7.5, 5 mM CaCl2): 3.9 ± 0.7 (U/mg) × 10^−3 | rise of temperature for optimum activity versus wild-type (casein [2]): 21 °C | Topt (optimum temperature for activity) (casein [2]; casein 0.8%, 30 minutes): 95 °C | activity and stability in the presence of high concentrations of denaturing agents [3]: active and stable | relative activity ([3]; GndHCl 0 M): 100% | relative activity ([3]; GndHCl 1.0 M): 95% | relative activity ([3]; GndHCl 2.0 M): 83% | relative activity ([3]; GndHCl 3.0 M): 68% | relative activity ([3]; GndHCl 4.0 M): 50% | relative activity ([3]; GndHCl 5.0 M): 40% | relative activity ([3]; GndHCl 5.5 M): 15% | relative activity ([3]; GndHCl 6.0 M): 0% | relative activity ([3]; SDS 0 % w/v): 100% | relative activity ([3]; SDS 0.25 % w/v): 94% | relative activity ([3]; SDS 0.5 % w/v): 81% | relative activity ([3]; SDS 0.75 % w/v): 57% | relative activity ([3]; SDS 1.0 % w/v): 40% | relative activity ([3]; SDS 1.25 % w/v): 29% | relative activity ([3]; SDS 1.5 % w/v): 22% | relative activity ([3]; SDS 2.0 % w/v): 0% | relative activity ([3]; Urea 0 M): 100% | relative activity ([3]; Urea 0.5 M): 97% | relative activity ([3]; Urea 1.0 M): 91% | relative activity ([3]; Urea 2.0 M): 93% | relative activity ([3]; Urea 3.0 M): 86% | relative activity ([3]; Urea 4.0 M): 72% | relative activity ([3]; Urea 5.0 M): 63% | relative activity ([3]; Urea 7.5 M): 35% | cleavage specificity, effect of the stabilizing mutations (β-Casein): largely unaffected | range of hydrolysis products (SDS-PAGE) versus the other enzymes [4]: much broader range of hydrolysis products | rate of hydrolysis and acid-soluble protein products versus the other enzyme preparations ([4]; enzyme 0.05% v/v, pH 7.0, 90° C.): more rapidly and that more acid-soluble protein products are produced
